Measured values taken from patent publication US20130252987A1, “METHOD OF REGULATING PLASMA LIPOPROTEINS” (MCMASTER UNIVERSITY, priority 2010, published 2013).

Assays:
HepG2 cells = assay: real-time quantitative PCR of mRNA expression; assay type: cell-based, human
Protocol: Total RNA was isolated from cell lysates (RNeasy Mini Kit, Qiagen, Germantown, Md.) and used as a template for cDNA synthesis (QuantiTech Reverse Transcription Kit, Qiagen, Germantown, Md.). Quantitative real-time PCR was performed using an Applied Biosystems 7300 Real Time PCR system (Carlsbad, Calif.) according to the manufacturer's instructions and with the SYBR green master kit (Qiagen, Germantown, Md.). Primers for the real-time PCR internal control gene cyclophilin A (sense, 5′-[…]-3′ (SEQ ID NO:3); antisense, 5′-[…]-3′ (SEQ ID NO:4)) were synthesized (IDT, Coralville, Iowa). Primers for succinate degydrogenase (SDH) (another real-time PCR internal control gene), apoB, microsomal triglyceride transfer protein (MTP), Srebp1, Srebp2, acetyl-coA carboxylase (ACC), HMG-coA reductase, HMG-coA synthase, squalene synthase (SS), the LDL receptor, PCSK9, fatty acid synthase (FAS), […] (SCD), DGAT1 and DGAT2 were purchased (proprietary sequences not available) (Qiagen, Germantown, Md.). The values reported for each mRNA were corrected to the cyclophilin A and SDH mRNA values.
Total RNA was isolated from cell lysates (RNeasy Mini Kit, Qiagen, MD) and used as a template for cDNA synthesis (QuantiTech Reverse Transcription Kit, Qiagen, MD). Quantitative real-time PCR was performed using an Applied Biosystems 7300 Real-Time PCR system (Carlsbad, Calif.) according to the manufacturer's instructions and with the SYBR green kit (Qiagen, MD). Primers for the real-time PCR internal control gene cyclophilin A, as identified in Example 1, were synthesized (IDT, IA). Primers for succinate dehydrogenase (SDH) (another real-time PCR internal control gene), SREBP2, HMG-CoA reductase, the LDL receptor and PCSK9 were purchased (proprietary sequences not available) (Qiagen, MD). The values reported for each mRNA were corrected to the cyclophilin A and SDH mRNA values.

[1] = tested on: primary mouse hepatocytes from PCSK9 knockout mice; assay: LDL receptor protein in PCSK9 knockout mouse hepatocytes; assay type: cell-based; details: 50 ng/mL, 24 hours
Protocol: Animal ethics approval was received for the mouse protocols to follow. Primary mouse hepatocytes from PCSK9 knockout mice (C57Bl/6 background) or their wildtype littermates were isolated by perfusing the liver via the hepatic portal vein with a 5 mM EGTA in Leffert's Buffer (10 mM Hepes; 3 mM KCl, 0.13 M NaCl, 1 mM NaH2PO4, 10 mM D-glucose) followed by a 0.3 mg/ml collagenase in 0.0279% CaCl2. Cells were then filtered through a 70 uM nylon strainer and centrifuged at 760 rpm for 5 min. The cells were then passed through a CHRM gradient (Invitrogen, NC). Viability of cells ranged from 80 to 95%. […] Mouse LDL receptor and PCSK9 protein in cell lysates were measured via immunoblotting, as described above, using the following primary antibodies: mouse LDL receptor (abcam, MA), mouse PCSK9 (abcam, MA) and mouse GAPDH (Cell Signaling, MA). […]
To then more directly quantify the role of PCSK9 in the resistin mediated reduction in hepatocyte LDL receptor levels, hepatocytes isolated and cultured from wild-type mice were treated with resistin, and compared to resistin-treated hepatocytes from PCSK9 knockout mice.

human hepatocytes = assay: cellular apoB100 protein expression in primary human hepatocytes; assay type: cell-based; details: 50 ng/mL, 24 hours
Protocol: (§1) Primary Cells: Fresh wild-type rat and mouse primary heptaocytes were supplied by CellzDirect (Invitrogen, NC) in a 6-well collagen coated plate. Upon arrival, the storage media was removed and incubation media (Williams E Medium, phenol red free, with incubation supplement pack, Gibco, NC) was added according to manufactures' instructions. The cells were incubated at 37° C. with 5% CO2 for 16 hours prior to human resistin (50 ng/mL) treatment for 24 hours. Cryopreserved plateable human hepatocytes, metabolism qualified from multiple normal human donors, were supplied by CellzDirect (Invitrogen, NC). Upon arrival, the cells (4-8 million in 1 mL), according to the manufacturer's instruction, were added to 48 mL warmed thawing medium (CHRM® Medium, Invitrogen, NC) and centrifuged at 100×g for 10 min at room temperature. The pellet was re-suspended in 4 mL plating medium (Williams E Medium, phenol red free, with maintenance supplement pack and 10% FBS, Gibco, NC). The cells were stained by Trypan Blue (Sigma, Canada) and counted by a haemocytometer, followed by seeding 1×10^6 cells/well in a 6-well collagen coated plate (CellzDirect, Invitrogen, NC). The cells were incubated at 37° C. with 5% CO2 for 4 hours to allow the cells to adhere. The plating media was replaced and cell incubated for 16 hours prior to human resistin treatment for 24 hours. […]

[2] = tested on: mouse primary hepatocytes; assay: cellular apoB100 protein expression in primary mouse hepatocytes; assay type: cell-based; details: 50 ng/mL, 24 hours
Protocol: as §1

B1: human resistin: recombinant lyophilized purified human resistin (Calbiochem); cysteine-rich cytokine, single 12 kDa band (protein)
chain: KTLCSMEEAINERIQEVAGSLIFRAISSIGLECQSVTSRGDLATCPRGFAVTGCTCGSACGSWDVRAETTCHCQCAGMDWTGARCCRVQP
For B1, the “apoB mRNA expression” value (HepG2 cells; 50 ng/mL, 24 hours) was “significant increase”, the “expression of DGAT1” value (HepG2 cells; 50 ng/mL, 24 hours) was “increased to smaller but significant extents” and the “expression of SCD” value (HepG2 cells; 50 ng/mL, 24 hours) was “increased to smaller but significant extents”. The “expression of the LDL RECEPTOR gene” value (HepG2 cells; 50 ng/mL, 24 hours) was “increased”, the “expression of the PCSK9 gene” value (HepG2 cells; 50 ng/mL, 24 hours) was “increased” and the “increase in the expression of ACC” value (HepG2 cells; 50 ng/mL, 24 hours) was 3 fold. For the same molecule, the “increase in the expression of HMG-CoA REDUCTASE” value (HepG2 cells; 50 ng/mL, 24 hours) was 2 fold, the “increase in the expression of HMG-CoA SYNTHASE” value (HepG2 cells; 50 ng/mL, 24 hours) was 2 fold and the “increase in the expression of SQUALENE SYNTHASE” value (HepG2 cells; 50 ng/mL, 24 hours) was 2 fold. For the same molecule, the “mRNA expression of SREBP1” value (HepG2 cells; 50 ng/mL, 24 hours) was “significantly increased”, the “mRNA expression of SREBP2” value (HepG2 cells; 50 ng/mL, 24 hours) was “significantly increased” and the “apoB mRNA expression” value (HepG2 cells; 100 ng/mL dose, after dose-response increase from 0 to 50 ng/mL) was “decreased”. The “decline in LDL receptor expression compared to untreated hepatocytes” value [1] was 15%, the “increase in cellular apoB protein expression versus untreated control cells” value (human hepatocytes) was 40-50% and the “increase in cellular apoB protein expression versus untreated control cells” value [2] was 40-50%.
